B1: Naglu-CREG fusion protein (produced in HT-1080 cells) (enzyme)
chain: DEAREAAAVRALVARLLGPGPAADFSVSVERALAAKPGLDTYSLGGGGAARVRVRGSTGVAAAAGLHRYLRDFCGCHVAWSGSQLRLPRPLPAVPGELTEATPNRYRYYQNVCTQSYSFVWWDWARWEREIDWMALNGINLALAWSGQEAIWQRVYLALGLTQAEINEFFTGPAFLAWGRMGNLHTWDGPLPPSWHIKQLYLQHRVLDQMRSFGMTPVLPAFAGHVPEAVTRVFPQVNVTKMGSWGHFNCSYSCSFLLAPEDPIFPIIGSLFLRELIKEFGTDHIYGADTFNEMQPPSSEPSYLAAATTAVYEAMTAVDTEAVWLLQGWLFQHQPQFWGPAQIRAVLGAVPRGRLLVLDLFAESQPVYTRTASFQGQPFIWCMLHNFGGNHGLFGALEAVNGGPEAARLFPNSTMVGTGMAPEGISQNEVVYSLMAELGWRKDPVPDLAAWVTSFAARRYGVSHPDAGAAWRLLLRSVYNCSGEACRGHNRSPLVRRPSLQMNTSIWYNRSDVFEAWRLLLTSAPSLATSPAFRYDLLDLTRQAVQELVSLYYEEARSAYLSKELASLLRAGGVLAYELLPALDEVLASDSRFLLGSWLEQARAAAVSEAEADFYEQNSRYQLTLWGPEGNILDYANKQLAGLVANYYTPRWRLFLEALVDSVAQGIPFQQHQFDKNVFQLEQAFVLSKQRYPSQPRGDTVDLAKKIFLKYYPRWVAGSWGAPGGGGGAAAAAGGGGGGAPGGGGGAAAAAGGGGGGAPGGGGGAAAAAGGGGGGAPRGGRDHGDWDEASRLPPLPPREDAARVARFVTHVSDWGALATISTLEAVRGRPFADVLSLSDGPPGAGSGVPYFYLSPLQLSVSNLQENPYATLTMTLAQTNFCKKHGFPLCVHIMLSGTVTKVNETEMDIAKHSLFIRHPEMKTWPSSHNWFFAKLNITNIWVLDYFGGPKIVTPEEYYNVTVQ
modifications: N-linked glycosylation sites in the CREG part marked (N); binding is M6P-dependent
B2: Naglu-CREG fusion protein produced in HT-1080 cells overexpressing GNPT (enzyme)
chain: B1 chain
modifications: increased M6P on N-linked glycans (co-expression with GNPT)
B3: Naglu-SapDC fusion protein (produced in HT-1080 cells) (enzyme)
chain: DEAREAAAVRALVARLLGPGPAADFSVSVERALAAKPGLDTYSLGGGGAARVRVRGSTGVAAAAGLHRYLRDFCGCHVAWSGSQLRLPRPLPAVPGELTEATPNRYRYYQNVCTQSYSFVWWDWARWEREIDWMALNGINLALAWSGQEAIWQRVYLALGLTQAEINEFFTGPAFLAWGRMGNLHTWDGPLPPSWHIKQLYLQHRVLDQMRSFGMTPVLPAFAGHVPEAVTRVFPQVNVTKMGSWGHFNCSYSCSFLLAPEDPIFPIIGSLFLRELIKEFGTDHIYGADTFNEMQPPSSEPSYLAAATTAVYEAMTAVDTEAVWLLQGWLFQHQPQFWGPAQIRAVLGAVPRGRLLVLDLFAESQPVYTRTASFQGQPFIWCMLHNFGGNHGLFGALEAVNGGPEAARLFPNSTMVGTGMAPEGISQNEVVYSLMAELGWRKDPVPDLAAWVTSFAARRYGVSHPDAGAAWRLLLRSVYNCSGEACRGHNRSPLVRRPSLQMNTSIWYNRSDVFEAWRLLLTSAPSLATSPAFRYDLLDLTRQAVQELVSLYYEEARSAYLSKELASLLRAGGVLAYELLPALDEVLASDSRFLLGSWLEQARAAAVSEAEADFYEQNSRYQLTLWGPEGNILDYANKQLAGLVANYYTPRWRLFLEALVDSVAQGIPFQQHQFDKNVFQLEQAFVLSKQRYPSQPRGDTVDLAKKIFLKYYPRWVAGSWGAPGGGGGAAAAAGGGGGGAPGGGGGAAAAAGGGGGGAPGGGGGAAAAAGGGGGGAPDGGFCEVCKKLVGYLDRNLEKNSTKQEILAALEKGCSFLPDPYQKQCDQFVAEYEPVLIEILVEVMDPSFVCLKIGACPSAHKPLLGTEKCIWGPSYWCQNTETAAQCNAVEHCKRHVWN
modifications: N-linked glycosylation site in the SapDC part marked (N); M6P content 0.75 mol/mol (M6P/Protein)
B4: Naglu-SapDC fusion protein produced in HT-1080 cells overexpressing GNPT (enzyme)
chain: B3 chain
modifications: increased M6P on N-linked glycans; M6P content 1.84 mol/mol (M6P/Protein)

Experiments:
[1] = molecular target: cation-independent mannose-6-phosphate receptor (CI-M6PR), as used in the in vitro receptor binding assay (ELISA); test: in vitro CI-M6PR binding assay
[2] = molecular target: cation-independent mannose-6-phosphate receptor (CI-M6PR), as used in the in vitro receptor binding assay (ELISA); test: ELISA, CI-M6PR binding, detection with antibody to human Naglu
[3] = molecular target: cation-independent mannose-6-phosphate receptor (CI-M6PR) on cells overexpressing CI-M6PR; test: cellular uptake assay on cells overexpressing CI-M6PR, intracellular Naglu activity read-out

Row | Binder | Kd [1] | Kd [2] | Kd [3] | fold higher affinity than Naglu-SapDC produced in cells expressing Naglu-SapDC alone [3]
1 | B1 | 2.5 nM | 1.25 nM | – | –
2 | B2 | 0.41 nM | – | – | –
3 | B3 | 2.9 nM | 5.5 nM | 209 nM | –
4 | B4 | 0.23 nM | – | 14.9 nM | 14 fold

Source: patent US20170232076A1
